Tests used:
[1] = target: human mAb 4E10 (human); assay: SPR
[2] = target: recombinant soluble CD4 (UniProt P01730); assay: SPR

Chain of human mAb 4E10 (human) (light, as listed by the source, chain 2 of 2, other chains not shown): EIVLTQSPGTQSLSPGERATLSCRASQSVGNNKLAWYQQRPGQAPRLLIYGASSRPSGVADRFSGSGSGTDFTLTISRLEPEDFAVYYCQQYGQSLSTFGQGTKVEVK

Row | Substance | fold enhancement of Kd against WT glycosylated CON-S gp140 [1] [fold] | Kd [2] [nM]
1 | CON-S gp140CFI Env, natively deglycosylated with PNGase F 500 U per µg | 7 | 9.4
2 | HIV-1 JRFL gp140CF Env, WT glycosylated (domain or fragment) |  | 5.7
3 | HIV-1 JRFL gp140CF Env, natively deglycosylated with PNGase F 500 U per µg (domain or fragment) |  | 35.3
4 | group M consensus gp140 Env, CON-S gp140CFI, WT glycosylated |  | 7.4

Source: paper PMC3164629
